Patent publication US20230192888A1

Legend:
[1] = target: human recombinant MMP-1 (human) (UniProt P03956); assay: sandwich ELISA; capture MAB901, detection 1-8A12-HRP; MMP-1 5 ng/ml
[2] = target: endogenous MMP-1 in clinical saliva samples (human) (UniProt P03956); assay: sandwich ELISA; capture MAB901, detection 1-8A12-HRP; saliva sample 4 (MMP-1 6.4 pg/ml)
[3] = target: endogenous MMP-1 in clinical saliva samples (human) (UniProt P03956); assay: sandwich ELISA; capture MAB901, detection 1-8A12-HRP; saliva sample 7 (MMP-1 120.6 pg/ml)
[4] = target: endogenous MMP-1 in clinical saliva samples (human) (UniProt P03956); assay: sandwich ELISA; capture MAB901, detection 1-8A12-HRP; saliva sample 8 (MMP-1 0 pg/ml)
[5] = target: human recombinant MMP-1 (human) (UniProt P03956); assay: sandwich ELISA; capture MAB901, detection 1-8A12-HRP; MMP-1 2.5 ng/ml
[6] = target: human recombinant MMP-1 (human) (UniProt P03956); assay: sandwich ELISA; capture MAB901, detection 1-8A12-HRP; MMP-1 0.625 ng/ml
[7] = target: human recombinant MMP-1 (human) (UniProt P03956); assay: sandwich ELISA; capture MAB901, detection 1-8A12-HRP; MMP-1 1.25 ng/ml
[8] = target: endogenous MMP-1 in clinical saliva samples (human) (UniProt P03956); assay: sandwich ELISA; capture MAB901, detection 1-8A12-HRP; saliva sample 5 (MMP-1 285.6 pg/ml)
[9] = target: endogenous MMP-1 in clinical saliva samples (human) (UniProt P03956); assay: sandwich ELISA; capture MAB901, detection 1-8A12-HRP; saliva sample 1 (MMP-1 14821.9 pg/ml)
[10] = target: endogenous MMP-1 in clinical saliva samples (human) (UniProt P03956); assay: sandwich ELISA; capture MAB901, detection 1-8A12-HRP; saliva sample 3 (MMP-1 1503.2 pg/ml)
[11] = target: human recombinant MMP-1 (human) (UniProt P03956); assay: sandwich ELISA; capture MAB901, detection 1-8A12-HRP; MMP-1 0.313 ng/ml
[12] = target: endogenous MMP-1 in clinical saliva samples (human) (UniProt P03956); assay: sandwich ELISA; capture MAB901, detection 1-8A12-HRP; saliva sample 2 (MMP-1 5041.1 pg/ml)
[13] = target: human recombinant MMP-1 (human) (UniProt P03956); assay: sandwich ELISA; capture MAB901, detection 1-8A12-HRP; MMP-1 10 ng/ml
[14] = target: human recombinant MMP-1 (human) (UniProt P03956); assay: sandwich ELISA; capture MAB901, detection 1-8A12-HRP; MMP-1 0.156 ng/ml
[15] = target: endogenous MMP-1 in clinical saliva samples (human) (UniProt P03956); assay: sandwich ELISA; capture MAB901, detection 1-8A12-HRP; saliva sample 6 (MMP-1 27.1 pg/ml)

OD value [1]: 1.19 OD
OD value [2]: -0.019 OD
OD value [3]: 0.006 OD
OD value [4]: -0.01 OD
OD value [5]: 0.544 OD
OD value [6]: 0.119 OD
OD value [7]: 0.258 OD
OD value [8]: 0.045 OD
OD value [9]: 2.69 OD
OD value [10]: 0.11 OD
OD value [11]: 0.056 OD
OD value [12]: 0.883 OD
OD value [13]: 2.34 OD
OD value [14]: 0.027 OD
OD value [15]: 0.003 OD
Substance: MAB901 (antibody)
